Laboratory results taken from publication PMC4390240 (PLoS ONE, 2015).
Several values for one entry are separate records, joined by “and”; a condition that tells them apart may be missing. Equal entries are not always repeated.

Columns and labels:
[1] = molecular target: the molecule itself; test: SEC; gel chromatography (Superdex 75) at 4°C in 50 mM potassium phosphate buffer, pH 7.0, after addition of 80% (v/v) ethanol to 1 mM oxidized monomeric protein, lyophilization and resolvation with buffer
[2] = molecular target: the molecule itself; test: differential scanning calorimetry; oxidized dimer, 100 μM (heme unit), scan rate 1°C/min, 50 mM potassium phosphate buffer, pH 7.0; dimer to monomers

B1: Pseudomonas aeruginosa cytochrome c 551, wild type (natural protein, UniProt P00099 23-104, looked up)
chain: EDPEVLFKNKGCVACHAIDTKMVGPAYKDVAAKFAGQAGAEAELAQRIKNGSQGVWGPIPMPPNAVSDDEAQTLAKWVLSQK
modifications: heme attached covalently to two Cys residues (heme-linked Cys12 and Cys15); His16 and Met61 coordinated to the heme iron; oxidized
notes: residues printed from Glu1; source: E. coli JCB387, purified (oxidized)
stoichiometry N [1]: 2 and 3 and 4 | dH of dissociation of the dimer to monomers [2]: ~0 kcal/mol
